According to paper PMC3220277 (Biochemistry, 2011):

Experiments:
Experiment in all cases: fluorescence polarisation
[1] = molecular target: C81A S100A4 (human, UniProt P26447 1-101, C81A)
[2] = molecular target: C3R/C86S S100A4 (human, UniProt P26447 1-101, C3R | C86S)
[3] = molecular target: C81S S100A4 (human, UniProt P26447 1-101, C81S)
[4] = molecular target: wild-type human S100A4 (human, UniProt P26447 1-101)
Chain of wild-type human S100A4 (P26447 whole entry, one chain of several): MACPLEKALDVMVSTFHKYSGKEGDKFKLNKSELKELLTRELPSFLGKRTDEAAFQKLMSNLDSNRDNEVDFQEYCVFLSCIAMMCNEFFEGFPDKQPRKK

Chain of C3R/C86S S100A4 (P26447 whole entry C3R/C86S, one chain of several): as the sequence (P26447 whole entry, one chain of several) above, with C3R, C86S counted along it
Chain of C81S S100A4 (P26447 whole entry C81S, one chain of several): as the sequence (P26447 whole entry, one chain of several) above, with C81S counted along it
Chain of C81A S100A4 (P26447 whole entry C81A, one chain of several): as the sequence (P26447 whole entry, one chain of several) above, with C81A counted along it

Kd [1]: 46.6 ± 3.2 µM | Kd [2]: 1400 ± 100 nM | Kd [3]: 128 ± 15.7 µM | Kd [4]: 2300 ± 300 nM
B1: FITC-Ahx-DAMNREVSSLKNKLRR-OH peptide (FITC-MIIA^1908−1923) (peptide)
peptide: DAMNREVSSLKNKLRR
HELM: PEPTIDE1{[O=C1OC2(c3ccc(O)cc3Oc3cc(O)ccc32)c2ccc(NC(=S)[*:2])cc21].[O=C(CCCCCN[*:1])[*:2]].D.A.M.N.R.E.V.S.S.L.K.N.K.L.R.R}$$$$V2.0
SMILES: CSCC[C@H](NC(=O)[C@H](C)NC(=O)[C@H](CC(=O)O)NC(=O)CCCCCNC(=S)Nc1ccc2c(c1)C(=O)OC21c2ccc(O)cc2Oc2cc(O)ccc21)C(=O)N[C@@H](CC(N)=O)C(=O)N[C@@H](CCCNC(=N)N)C(=O)N[C@@H](CCC(=O)O)C(=O)N[C@H](C(=O)N[C@@H](CO)C(=O)N[C@@H](CO)C(=O)N[C@@H](CC(C)C)C(=O)N[C@@H](CCCCN)C(=O)N[C@@H](CC(N)=O)C(=O)N[C@@H](CCCCN)C(=O)N[C@@H](CC(C)C)C(=O)N[C@@H](CCCNC(=N)N)C(=O)N[C@@H](CCCNC(=N)N)C(=O)O)C(C)C
